The values below come from PMC7710921 (Structure (London, England : 1993), 2020).

The target in experiment [1] is unlabelled hTBP (human TATA-box Binding Protein) (human) (UniProt P20226). The experiment can be described thus: single-molecule two-colour nanometer co-localisation.
A further experiment deals with T1, His-tagged Rap74 (human, UniProt P35269 1-517).
T1 sequence (looked up): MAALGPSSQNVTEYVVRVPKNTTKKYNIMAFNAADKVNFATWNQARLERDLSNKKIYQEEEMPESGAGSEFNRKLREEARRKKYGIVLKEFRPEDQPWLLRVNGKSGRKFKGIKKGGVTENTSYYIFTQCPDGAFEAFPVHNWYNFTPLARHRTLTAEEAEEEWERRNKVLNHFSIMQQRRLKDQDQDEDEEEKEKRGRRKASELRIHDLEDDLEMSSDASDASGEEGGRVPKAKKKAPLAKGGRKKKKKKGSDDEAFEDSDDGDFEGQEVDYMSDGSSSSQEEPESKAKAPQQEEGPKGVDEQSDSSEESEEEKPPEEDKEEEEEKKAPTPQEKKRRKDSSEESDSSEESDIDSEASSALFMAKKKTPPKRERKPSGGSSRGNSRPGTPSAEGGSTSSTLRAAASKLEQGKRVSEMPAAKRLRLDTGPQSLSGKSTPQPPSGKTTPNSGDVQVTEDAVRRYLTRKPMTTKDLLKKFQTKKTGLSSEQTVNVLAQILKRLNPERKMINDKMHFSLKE
The experiment can be described thus: reconstitution by refolding and Ni-NTA co-purification.

For “Alexa647-labelled hTFIIA (from UniProt P52655 1-376; P52657 1-109) (complex)”, in experiment [1], the percent of TFIIA spots co-localised with TATA-box DNA in the presence of TBP was 45%.

B1: Rap30 (natural protein, human, UniProt P13984 1-249, looked up)
chain: MAERGELDLTGAKQNTGVWLVKVPKYLSQQWAKASGRGEVGKLRIAKTQGRTEVSFTLNEDLANIHDIGGKPASVSAPREHPFVLQSVGGQTLTVFTESSSDKLSLEGIVVQRAECRPAASENYMRLKRLQIEESSKPVRLSQQLDKVVTTNYKPVANHQYNIEYERKKKEDGKRARADKQHVLDMLFSAFEKHQYYNLKDLVDITKQPVVYLKEILKEIGVQNVKGIHKNTWELKPEYRHYQGEEKSD
As for B1, in the experiment with His-tagged Rap74, the binding result is listed as “binds”.
